Test results taken from patent publication US10184116B2, “Chimeric genes for the catalytic protein of Oplophorus luciferase and use thereof” (JNC CORPORATION, priority 2014, dated 2019).

Legend:
[1] = test system: CHO-K1 cells; test: Luminescence activity of WNanoKAZ mutants expressed by secretory expression vectors in animal culture cells (Example 13); type: cell-based, Chinese hamster; settings: pcDNA3-GLsp- secretory vector, coelenterazine substrate
Protocol: (§1) Chinese hamster ovary cell line CHO-K1 was cultured in Ham's F-12 medium (manufactured by Wako Pure Chemical Industries, Ltd.) supplemented with 10% (v/v) fetal bovine serum (manufactured by Biowest Inc.). The CHO-K1 cells were seeded in a 6-well plate in 1×10^5 cells/well/2 mL medium (n=2) and cultured in an incubator at 37° C. in 5% (v/v) CO2. After 24 hours, the purified recombinant plasmid was transfected to CHO-K1 cells using a FuGene HD transfection kit (manufactured by Promega Corp.) and the cells were used for subsequent experiment. Specifically, 1 μg of the recombinant plasmid, 0.1 μg of the internal standard vector pGL4.13 [Luc2/sv40] and 3 μL of FuGene HD were added to 100 μL of the medium and allowed to stand at room temperature for 15 minutes. Subsequently, 100 μL of the DNA-FuGene complex solution was added to the cells in the 6-well plate. After incubation for 46 hours, the culture medium was collected. On the other hand, the KAZ mutant expressed in the cells was washed 3 times with 3 mL of 1×PBS, then suspended in 1 mL of 1×PBS and disrupted by sonication on ice. The resultant cell extract of WNanoKAZ was used as the enzyme solution.
(§2) After adding 5 μL of the culture medium and cell extract obtained in EXAMPLE 5 to 100 μL of 30 mM Tris-HCl (pH 7.6)-10 mM EDTA (Wako Pure Chemical Industries, Ltd.) containing 1 μg of coelenterazine (manufactured by JNC Corp.), a luminescence reaction was started. Luminescence activity was measured for 60 seconds using a luminometer (manufactured by Atto Inc.: AB2200). The maximum intensity of luminescence (Imax) was given as a percentage (%).
The recombinant plasmid obtained in EXAMPLE 12 or 4 was purified in a manner similar to EXAMPLE 5 and dissolved in sterile water. The firefly luciferase vector (pGL4.13 [Luc2/sv40]: manufactured by Promega Corp.) was similarly prepared and used as an internal standard.
Culture medium containing two amino acid-substituted KAZ mutants and three amino acid-substituted KAZ mutants and cell extracts of the KAZ mutants as the enzyme solutions were prepared by the same procedure as in EXAMPLE 9.
The resultant culture medium and cell extracts were used to measure luminescence activity as in EXAMPLE 6.

[2] = Luminescence activity of WNanoKAZ in crude enzyme solution (Example 3); type: biochemical; settings: for Relative luminescence activity (Imax): pCold-ZZ-P- vector in E. coli, KAZ = 1.0
Protocol: In order to express WNanoKAZ in E. coli, pCold-ZZ-P-WNanoKAZ obtained in EXAMPLE 1 was used. The E. coli BL21 strain (Novagen, Madison, Wis.) was used as a host cell. The BL21 strain carrying the recombinant plasmid was incubated in 5 mL of Luria-Bertani medium (hereinafter designated as LB medium) containing ampicillin (50 μg/mL) at 37° C. for 17 hours. The seed culture of 0.1 mL was inoculated to 10 mL of LB medium and incubated for 3 hours, followed by cooling in freezing water for 1 hour. IPTG was added to the culture medium at a final concentration of 0.1 mM, followed by incubation at 15° C. for further 19 hours. After completion of the incubation, 1 mL of the culture medium was collected by centrifugation at 10,000 rpm for 2 minutes. The collected E. coli cells were suspended in 0.5 mL of 30 mM Tris-HCl (pH 7.6)-10 mM EDTA. The cells were disrupted by sonication for 3 seconds using a Branson Model 250 Sonifire (Danbury, Conn.) to give a crude enzyme solution. Then, DTT was added to the crude enzyme solution at a final concentration of 1 mM. After the mixture was allowed to stand in freezing water over 8 hours or more, the luminescence activity was measured.
1 μl of the crude enzyme solution obtained in EXAMPLE 2 was added to 100 μl of 30 mM Trix-HCl (pH 7.6)-10 mM EDTA (Wako Pure Chemical Industries, Ltd.) containing 1 μg of coelenterazine (manufactured by JINC Corp.), luminescence reaction was started. Luminescence activity was measured for 60 seconds using a luminometer (manufactured by Atto Inc.: AB2200); the maximum intensity of luminescence (Imax) was given as a relative luminescence activity.

[3] = test system: CHO-K1 cells; test: Luminescence activity of KAZ mutants expressed in animal cultured cells, culture medium and cell extract (Example 6); type: cell-based, Chinese hamster; settings: pcDNA3-GLsp- vector in CHO-K1, coelenterazine substrate
Protocol: as §1, §2

[4] = Substrate specificity of WNanoKAZ mutants, crude enzyme solution (Example 11); type: biochemical; settings: for Relative luminescence activity, 6h-CTZ, Imax / Relative luminescence activity, 6h-CTZ, Int.: substrate 6h-CTZ; for Relative luminescence activity, 6h-f-CTZ, Imax / Relative luminescence activity, 6h-f-CTZ, Int.: substrate 6h-f-CTZ; for Relative luminescence activity, CTZ, Imax / Relative luminescence activity, CTZ, Int.: substrate CTZ
Protocol: (§3) DTT was added to the crude enzyme solution obtained in EXAMPLE 9 at a final concentration of 1 mM, and then allowed to stand in an ice-water bath over 8 hours or more. After 1 μL of the crude enzyme solution was added to 100 μL of 30 mM Tris-HCl (pH 7.6)-10 mM EDTA (Wako Pure Chemical Industries, Ltd.) containing 1 μg of coelenterazine (manufactured by JNC Corp.), a luminescence reaction was started. Luminescence activity was measured for 60 seconds using a luminometer (manufactured by Atto Inc.: AB2200). The maximum intensity of luminescence (Imax) was given as a relative luminescence activity (rlu).
Each of the coelenterazine analogues used for substrate specificity studies was synthesized by the methods described in publications. Specifically, bis-coelenterazine was synthesized by the method described in Nakamura et al. (1997) Tetrahedron Lett. 38: 6405-6406, furimazine by the method described in Hall et al. (2012) ACS Chem. Biol. […], and, 6h-coelenterazine, f-coelenterazine and 6h-f-coelenterazine by the method described in Inouye et al (2013) Biochem. Biophys. Res. Commun. 437: 23-28. Luminescence activity was measured by the same method as in EXAMPLE 10, using the crude enzyme solution obtained in EXAMPLE 10, in which coelenterazine or its analogue was used as the luminescence substrate.

[5] = Luminescence activity of ZZ-fused WNanoKAZ mutants in crude enzyme solution (Example 10); type: biochemical; settings: coelenterazine substrate; for Relative luminescence activity (Imax): ZZ-fused, pCold-ZZ-P- vector in E. coli, KAZ = 1.0
Protocol: In order to express ZZ-fused KAZ mutants in E. coli, the recombinant plasmid produced in EXAMPLE 8 and pCold-ZZ-P-WNanoKAZ produced in EXAMPLE 1 were used. The crude enzyme solution was prepared in a manner similar to EXAMPLE 2, using the E. coli BL21 strain (Novagen, Madison, Wis.) as a host cell. Then, 5 μL of the crude enzyme solution obtained was subjected to SDS-PAGE analysis to confirm the protein expression in all mutants. In FIG. 1, M and 1 to 8 represent as follows. M: molecular weight size markers; 1: ZZ-P-KAZ; 2: ZZ-P-WNanoKAZ; 3: ZZ-P-WNanoKAZ-V90I; 4: ZZ-P-WNanoKAZ-E115P; 5: ZZ-P-WNanoKAZ-K124Q; 6: ZZ-P-WNanoKAZ-I138Y; 7: ZZ-P-WNanoKAZ-R166N; 8: ZZ-P-dnKAZ. It was confirmed from FIG. 1 that all mutants were expressed.
as §3

[6] = crude enzyme solution, coelenterazine substrate

Relative luminescence activity (Imax) [2, 6] | Relative luminescence activity, Furimazine, Imax [4] | Relative luminescence activity, bis-CTZ, Imax [4] | Relative luminescence activity, f-CTZ, Imax [4] | Relative luminescence activity, h-CTZ, Imax [4] | Relative luminescence activity, Furimazine, Int. [4] | Relative luminescence activity, bis-CTZ, Int. [4] | Relative luminescence activity, f-CTZ, Int. [4] | Relative luminescence activity, h-CTZ, Int. [4] | Relative luminescence activity, 6h-CTZ, Imax [4] | Relative luminescence activity, 6h-CTZ, Int. [4] | Relative luminescence activity, 6h-f-CTZ, Imax [4] | Relative luminescence activity, 6h-f-CTZ, Int. [4] | Relative luminescence activity, CTZ, Imax [4] | Relative luminescence activity, CTZ, Int. [4] | Relative luminescence activity (Imax) [5] | Molecule | Relative luminescence activity (%, Imax) Cell extracts [1] | Relative luminescence activity (%, Imax) Culture medium [1] | Relative luminescence activity (%, Imax) Cell extracts [3] | Relative luminescence activity (%, Imax) Culture medium [3] | other results
64 | 26 | 32 | 48 | 64 | 29 | 24 | 32 | 33 | 8.9 | 7.5 | 41 | 34 | 64 | 56 | 64 | WNanoKAZ: chimeric protein: positions 1-82 of native KAZ and 83-169 of nanoKAZ; SEQ ID NO: 6; I90V, P115E, Q124K, Y138I, N166R (protein, chimeric protein: positions 1-82 of native KAZ and 83-169 of nanoKAZ; I90V, P115E, Q124K, Y138I, N166R) FTLADFVGDWQQTAGYNQDQVLEQGGLSSLFQALGVSVTPIQKVVLSGENGLKADIHVIIPYEGLSGFQMGLIEMIFKVVYPVDDHHFKVILHYGTLVIDGVTPNMIDYFGRPYEGIAVFDGKKITVTGTLWNGNKIIDERLINPDGSLLFRVTINGVTGWRLCERILA | 22% | <0.01% | 22% | <0.01% | fold higher activity than that of dnKAZ ([2]; coelenterazine used as the substrate, as shown in EXAMPLE 3): 64 fold; fold higher activity than native KAZ ([2]; crude enzyme solution, coelenterazine substrate, Imax): 64 fold; fold higher activity than the other coelenterazine analogues when coelenterazine was used as the substrate ([4]; coelenterazine substrate): 8.6 fold; fold higher activity than native KAZ ([5]; Imax): 64 fold; fold higher activity than the relative activity 7.4 of dnKAZ ([5]; Imax): 8.6 fold
1.0 | 0.2 | 0.5 | 1.0 | 1.2 | 0.3 | 0.1 | 0.9 | 0.9 | 0.08 | 0.1 | 0.3 | 0.4 | 1.0 | 1.0 | 1.0 | KAZ: 19 kDa protein of native Oplophorus luciferase having luminescence activity; SEQ ID NO: 2 (protein, listed as Oplophorus gracilirostris) FTLADFVGDWQQTAGYNQDQVLEQGGLSSLFQALGVSVTPIQKVVLSGENGLKADIHVIIPYEGLSGFQMGLIEMIFKVVYPVDDHHFKIILHYGTLVIDGVTPNMIDYFGRPYPGIAVFDGKQITVTGTLWNGNKIYDERLINPDGSLLFRVTINGVTGWRLCENILA | 0.2% | 0.1% | 0.2% | 0.1% | –
